Measurements as given in patent US20250206797A1 (BEIJING TUO JIE BIOPHARMACEUTICAL, published 2025).

Experiments:
Test in all cases: cell-based or functional assay
[1] = target: insulin receptor of C2C12 mouse myoblasts (mouse, UniProt P15208 28-1372)
IGF-IR [2] = target: T1, IGF-IR (human, UniProt P08069 31-1367)
IGF-IR [3] = target: T1, IGF-IR; remark: listed apart in the source

insulin receptor of C2C12 mouse myoblasts, sequence (P15208 28-1372): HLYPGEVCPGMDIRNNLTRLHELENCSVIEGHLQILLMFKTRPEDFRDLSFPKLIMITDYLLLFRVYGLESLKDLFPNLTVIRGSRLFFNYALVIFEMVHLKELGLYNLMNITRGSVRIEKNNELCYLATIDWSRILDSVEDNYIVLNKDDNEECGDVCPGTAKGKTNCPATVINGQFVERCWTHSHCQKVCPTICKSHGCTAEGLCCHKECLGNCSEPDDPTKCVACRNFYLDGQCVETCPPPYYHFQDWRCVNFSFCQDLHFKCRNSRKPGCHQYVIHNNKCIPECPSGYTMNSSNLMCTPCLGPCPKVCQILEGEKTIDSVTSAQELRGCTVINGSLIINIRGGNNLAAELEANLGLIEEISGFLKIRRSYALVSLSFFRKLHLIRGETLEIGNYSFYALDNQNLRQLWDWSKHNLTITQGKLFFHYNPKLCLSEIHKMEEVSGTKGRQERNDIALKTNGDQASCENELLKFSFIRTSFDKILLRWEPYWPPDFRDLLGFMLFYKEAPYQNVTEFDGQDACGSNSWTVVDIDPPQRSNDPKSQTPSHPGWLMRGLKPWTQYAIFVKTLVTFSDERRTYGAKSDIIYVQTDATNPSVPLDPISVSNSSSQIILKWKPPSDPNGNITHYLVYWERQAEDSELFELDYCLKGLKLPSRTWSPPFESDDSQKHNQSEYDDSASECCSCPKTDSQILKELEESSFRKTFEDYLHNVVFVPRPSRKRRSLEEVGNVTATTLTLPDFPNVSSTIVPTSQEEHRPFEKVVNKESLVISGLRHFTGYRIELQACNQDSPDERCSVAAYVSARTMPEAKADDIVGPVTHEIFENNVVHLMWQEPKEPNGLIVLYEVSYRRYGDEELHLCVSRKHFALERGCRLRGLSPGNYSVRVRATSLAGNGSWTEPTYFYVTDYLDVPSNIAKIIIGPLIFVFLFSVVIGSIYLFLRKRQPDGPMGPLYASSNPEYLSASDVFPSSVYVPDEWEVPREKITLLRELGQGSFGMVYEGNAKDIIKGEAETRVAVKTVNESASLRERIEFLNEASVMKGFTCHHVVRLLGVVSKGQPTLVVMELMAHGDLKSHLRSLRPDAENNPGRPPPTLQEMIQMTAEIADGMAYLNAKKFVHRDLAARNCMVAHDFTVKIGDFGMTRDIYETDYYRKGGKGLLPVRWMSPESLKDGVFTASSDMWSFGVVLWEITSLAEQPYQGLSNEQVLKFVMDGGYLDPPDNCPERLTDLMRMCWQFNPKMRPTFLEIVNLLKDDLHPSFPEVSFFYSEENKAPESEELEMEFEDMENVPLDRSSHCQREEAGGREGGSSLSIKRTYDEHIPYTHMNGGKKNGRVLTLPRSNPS

AKT phosphorylation activity (EC50) in C2C12 mouse myoblasts (HTRF phospho-S473) [1] [nM]	Activity in promoting MCF-7 proliferation (EC50), CellTiter-Glo (IGF-IR [2]) [nM]	EC50 for the activity in promoting MCF-7 proliferation, relative to LY3209590 (IGF-IR [3])	Binder
456			fusion protein 6 (insulin analog 5 + L2 + IgG2 Fc1) (Fc fusion) FVNQHLCGEHLVEALYLVCGERGFHYGGGGGSGGGGGIVEQCCESICSLEQLENYCGGGGGQGGGGQGGGGQGGGGGECPPCPAPPVAGPSVFLFPPKPKDTLMISRTPEVTCVVVDVSHEDPEVQFNWYVDGVEVHNAKTKPREEQFNSTFRVVSVLTVVHQDWLNGKEYKCKVSNKGLPAPIEKTISKTKGQPREPQVYTLPPSREEMTKNQVSLTCLVKGFYPSDIAVEWESNGQPENNYKTTPPMLDSDGSFFLYSKLTVDKSRWQQGNVFSCSVMHEALHNHYTQKSLSLSPG
194	31.2		LY3209590 (Fc fusion) FVNQHLCGSHLVEALELVCGERGFHYGGGGGGSGGGGGIVEQCCTSTCSLDQLENYCGGGGGQGGGGQGGGGQGGGGGECPPCPAPPVAGPSVFLFPPKPKDTLMISRTPEVTCVVVDVSHEDPEVQFNWYVDGVEVHNAKTKPREEQFNSTFRVVSVLTVVHQDWLNGKEYKCKVSNKGLPAPIEKTISKTKGQPREPQVYTLPPSREEMTKNQVSLTCLVKGFYPSDIAVEWESNGQPENNYKTTPPMLDSDGSFFLYSKLTVDKSRWQQGNVFSCSVMHEALHNHYTQKSLSLSPG
490	280		fusion protein 1 (insulin analog 1 + L2 + IgG2 Fc1) (Fc fusion) FVNQHLCGEHLVEALYLVCGERGFHYGGGGGGSGGGGGIVEQCCESICSLEQLENYCGGGGGQGGGGQGGGGQGGGGGECPPCPAPPVAGPSVFLFPPKPKDTLMISRTPEVTCVVVDVSHEDPEVQFNWYVDGVEVHNAKTKPREEQFNSTFRVVSVLTVVHQDWLNGKEYKCKVSNKGLPAPIEKTISKTKGQPREPQVYTLPPSREEMTKNQVSLTCLVKGFYPSDIAVEWESNGQPENNYKTTPPMLDSDGSFFLYSKLTVDKSRWQQGNVFSCSVMHEALHNHYTQKSLSLSPG
28.6			fusion protein 3 (insulin analog 3 + L2 + IgG2 Fc1) (Fc fusion) FVNQHLCGSHLVEALHLVCGERGFHYGGGGGGSGGGGGIVEQCCTSICSLEQLENYCNGGGGQGGGGQGGGGQGGGGGECPPCPAPPVAGPSVFLFPPKPKDTLMISRTPEVTCVVVDVSHEDPEVQFNWYVDGVEVHNAKTKPREEQFNSTFRVVSVLTVVHQDWLNGKEYKCKVSNKGLPAPIEKTISKTKGQPREPQVYTLPPSREEMTKNQVSLTCLVKGFYPSDIAVEWESNGQPENNYKTTPPMLDSDGSFFLYSKLTVDKSRWQQGNVFSCSVMHEALHNHYTQKSLSLSPG
565			fusion protein 4 (insulin analog 4 + L2 + IgG2 Fc1) (Fc fusion) FVKQHLCGEHLVEALYLVCGERGFHYGGGGGGSGGGGGIVEQCCESICSLEQLENYCGGGGGQGGGGQGGGGQGGGGGECPPCPAPPVAGPSVFLFPPKPKDTLMISRTPEVTCVVVDVSHEDPEVQFNWYVDGVEVHNAKTKPREEQFNSTFRVVSVLTVVHQDWLNGKEYKCKVSNKGLPAPIEKTISKTKGQPREPQVYTLPPSREEMTKNQVSLTCLVKGFYPSDIAVEWESNGQPENNYKTTPPMLDSDGSFFLYSKLTVDKSRWQQGNVFSCSVMHEALHNHYTQKSLSLSPG
544			fusion protein 8 (insulin analog 1 + L2 + IgG2 Fc1) (Fc fusion) FVNQHLCGEHLVEALYLVCGERGFHYGGGGGGSGGGGGIVEQCCESICSLEQLENYCGGGGGAGGGGAGGGGAGGGGGECPPCPAPPVAGPSVFLFPPKPKDTLMISRTPEVTCVVVDVSHEDPEVQFNWYVDGVEVHNAKTKPREEQFNSTFRVVSVLTVVHQDWLNGKEYKCKVSNKGLPAPIEKTISKTKGQPREPQVYTLPPSREEMTKNQVSLTCLVKGFYPSDIAVEWESNGQPENNYKTTPPMLDSDGSFFLYSKLTVDKSRWQQGNVFSCSVMHEALHNHYTQKSLSLSPG
90.5		~2 fold of the EC50 of LY3209590	fusion protein 2 (insulin analog 2 + L2 + IgG2 Fc1) (Fc fusion) FVNQHLCGSHLVEALYLVCGERGFHYGGGGGGSGGGGGIVEQCCHSICSLEQLENYCGGGGGQGGGGQGGGGQGGGGGECPPCPAPPVAGPSVFLFPPKPKDTLMISRTPEVTCVVVDVSHEDPEVQFNWYVDGVEVHNAKTKPREEQFNSTFRVVSVLTVVHQDWLNGKEYKCKVSNKGLPAPIEKTISKTKGQPREPQVYTLPPSREEMTKNQVSLTCLVKGFYPSDIAVEWESNGQPENNYKTTPPMLDSDGSFFLYSKLTVDKSRWQQGNVFSCSVMHEALHNHYTQKSLSLSPG
133			fusion protein 9 (insulin analog 6 + L2 + IgG2 Fc1) (Fc fusion) FVNQHLCGEHLVEALYLVCGERGFHYGGGGGGSGGGGGIVEQCCESICSLEQLENYCNHGGGQGGGGQGGGGQGGGGGECPPCPAPPVAGPSVFLFPPKPKDTLMISRTPEVTCVVVDVSHEDPEVQFNWYVDGVEVHNAKTKPREEQFNSTFRVVSVLTVVHQDWLNGKEYKCKVSNKGLPAPIEKTISKTKGQPREPQVYTLPPSREEMTKNQVSLTCLVKGFYPSDIAVEWESNGQPENNYKTTPPMLDSDGSFFLYSKLTVDKSRWQQGNVFSCSVMHEALHNHYTQKSLSLSPG
280			fusion protein 7 (insulin analog 1 + L2 + IgG2 Fc1) (Fc fusion) FVNQHLCGEHLVEALYLVCGERGFHYGGGGGGSGGGGGIVEQCCESICSLEQLENYCGPGPQPGPQPGPQPGPQPGPQPGPQPGPQPGPQECPPCPAPPVAGPSVFLFPPKPKDTLMISRTPEVTCVVVDVSHEDPEVQFNWYVDGVEVHNAKTKPREEQFNSTFRVVSVLTVVHQDWLNGKEYKCKVSNKGLPAPIEKTISKTKGQPREPQVYTLPPSREEMTKNQVSLTCLVKGFYPSDIAVEWESNGQPENNYKTTPPMLDSDGSFFLYSKLTVDKSRWQQGNVFSCSVMHEALHNHYTQKSLSLSPG
320			fusion protein 5 (insulin analog 1 + L2 + IgG2 Fc1) (Fc fusion) FVNQHLCGEHLVEALYLVCGERGFHYGGGGGGSGGGGGIVEQCCESICSLEQLENYCGGGGGQGGGGQGGGGQGGGGQGGGGQECPPCPAPPVAGPSVFLFPPKPKDTLMISRTPEVTCVVVDVSHEDPEVQFNWYVDGVEVHNAKTKPREEQFNSTFRVVSVLTVVHQDWLNGKEYKCKVSNKGLPAPIEKTISKTKGQPREPQVYTLPPSREEMTKNQVSLTCLVKGFYPSDIAVEWESNGQPENNYKTTPPMLDSDGSFFLYSKLTVDKSRWQQGNVFSCSVMHEALHNHYTQKSLSLSPG
